target: T1, full length human CD19 expressed on mouse preB cell line 300.19 (300.19-hsCD19FL) (human, UniProt P15391 20-556); assay: flow cytometry on mouse 300.19 cells expressing hCD19, His-tagged scFv
T1 construct: whole, on cells; also called hCD19; 300.CD19
T1 sequence (looked up): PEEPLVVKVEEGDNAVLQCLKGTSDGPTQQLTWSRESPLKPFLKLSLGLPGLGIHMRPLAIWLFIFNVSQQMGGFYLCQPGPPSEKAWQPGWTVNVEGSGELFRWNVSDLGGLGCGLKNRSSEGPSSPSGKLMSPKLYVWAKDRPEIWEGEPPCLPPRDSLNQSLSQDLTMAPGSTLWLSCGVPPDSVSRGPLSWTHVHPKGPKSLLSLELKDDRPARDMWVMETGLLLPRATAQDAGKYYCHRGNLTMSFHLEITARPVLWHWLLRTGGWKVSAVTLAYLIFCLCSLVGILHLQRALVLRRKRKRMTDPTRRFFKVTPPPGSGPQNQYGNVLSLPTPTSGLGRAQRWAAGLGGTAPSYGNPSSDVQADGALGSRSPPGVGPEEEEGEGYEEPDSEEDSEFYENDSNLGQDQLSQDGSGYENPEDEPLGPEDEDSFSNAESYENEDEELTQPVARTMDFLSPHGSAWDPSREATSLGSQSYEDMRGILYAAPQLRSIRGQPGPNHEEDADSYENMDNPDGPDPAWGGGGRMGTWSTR
Experimental: Mouse cell line 300.CD19 were grown in RPMI 1640 with 0.5 mg/ml Zeocin. Around 5e5 cells/per well were transferred to the BD Falcon 96 well plate. The cells were spin down at 900 rpm (Sorval Legend XT centrifuge) for 3 minutes. The supernatant were removed. Anti-CD19 scFv protein samples were diluted in DPBS with 5% FBS. The samples were added into the wells, mixed well with the cells and incubated for 1 hour. The cells were washed twice in the DPBS with 5% FBS. The cells were incubated with antipoly His PE (R&D) for 1 hour, washed twice before FACS analysis (LSRII from BD Biosciences).

Row | Binder | binding result
1 | 100796 CAR7 - Soluble scFv (scFv, Built here without the leader) scFv: QVQLQESGPGLVKPSETLSLTCTVSGVSLPDYGVSWIRQPPGKGLEWIGVIWGSETTYYSSSLKSRVTISKDNSKNQVSLKLSSVTAADTAVYYCAKHYYYGGSYAMDYWGQGTLVTVSSGGGGSGGGGSGGGGSGGGGSEIVMTQSPATLSLSPGERATLSCRASQDISKYLNWYQQKPGQAPRLLIYHTSRLHSGIPARFSGSGSGTDYTLTISSLQPEDFAVYFCQQGNTLPYTFGQGTKLEIKHHHHHHHH | binds
2 | 100798 CAR8 - Soluble scFv (scFv, Built here without the leader) scFv: QVQLQESGPGLVKPSETLSLTCTVSGVSLPDYGVSWIRQPPGKGLEWIGVIWGSETTYYQSSLKSRVTISKDNSKNQVSLKLSSVTAADTAVYYCAKHYYYGGSYAMDYWGQGTLVTVSSGGGGSGGGGSGGGGSGGGGSEIVMTQSPATLSLSPGERATLSCRASQDISKYLNWYQQKPGQAPRLLIYHTSRLHSGIPARFSGSGSGTDYTLTISSLQPEDFAVYFCQQGNTLPYTFGQGTKLEIKHHHHHHHH | binds
3 | 99789 CAR5 - Soluble scFv (scFv, Built here without the leader) scFv: EIVMTQSPATLSLSPGERATLSCRASQDISKYLNWYQQKPGQAPRLLIYHTSRLHSGIPARFSGSGSGTDYTLTISSLQPEDFAVYFCQQGNTLPYTFGQGTKLEIKGGGGSGGGGSGGGGSGGGGSQVQLQESGPGLVKPSETLSLTCTVSGVSLPDYGVSWIRQPPGKGLEWIGVIWGSETTYYSSSLKSRVTISKDNSKNQVSLKLSSVTAADTAVYYCAKHYYYGGSYAMDYWGQGTLVTVSSHHHHHHHH | binds
4 | 99790 CAR6 - Soluble scFv (scFv, Built here without the leader) scFv: EIVMTQSPATLSLSPGERATLSCRASQDISKYLNWYQQKPGQAPRLLIYHTSRLHSGIPARFSGSGSGTDYTLTISSLQPEDFAVYFCQQGNTLPYTFGQGTKLEIKGGGGSGGGGSGGGGSGGGGSQVQLQESGPGLVKPSETLSLTCTVSGVSLPDYGVSWIRQPPGKGLEWIGVIWGSETTYYQSSLKSRVTISKDNSKNQVSLKLSSVTAADTAVYYCAKHYYYGGSYAMDYWGQGTLVTVSSHHHHHHHH | binds
5 | 103101 CAR1 Soluble scFv (scFv, Built here without the leader) scFv: EIVMTQSPATLSLSPGERATLSCRASQDISKYLNWYQQKPGQAPRLLIYHTSRLHSGIPARFSGSGSGTDYTLTISSLQPEDFAVYFCQQGNTLPYTFGQGTKLEIKGGGGSGGGGSGGGGSQVQLQESGPGLVKPSETLSLTCTVSGVSLPDYGVSWIRQPPGKGLEWIGVIWGSETTYYSSSLKSRVTISKDNSKNQVSLKLSSVTAADTAVYYCAKHYYYGGSYAMDYWGQGTLVTVSSHHHHHHHH | binds
6 | 103102 CAR2 - Soluble scFv (scFv, Built here without the leader) scFv: EIVMTQSPATLSLSPGERATLSCRASQDISKYLNWYQQKPGQAPRLLIYHTSRLHSGIPARFSGSGSGTDYTLTISSLQPEDFAVYFCQQGNTLPYTFGQGTKLEIKGGGGSGGGGSGGGGSQVQLQESGPGLVKPSETLSLTCTVSGVSLPDYGVSWIRQPPGKGLEWIGVIWGSETTYYQSSLKSRVTISKDNSKNQVSLKLSSVTAADTAVYYCAKHYYYGGSYAMDYWGQGTLVTVSSHHHHHHHH | binds
7 | 103104 CAR 3 - Soluble scFv (scFv, Built here without the leader) scFv: QVQLQESGPGLVKPSETLSLTCTVSGVSLPDYGVSWIRQPPGKGLEWIGVIWGSETTYYSSSLKSRVTISKDNSKNQVSLKLSSVTAADTAVYYCAKHYYYGGSYAMDYWGQGTLVTVSSGGGGSGGGGSGGGGSEIVMTQSPATLSLSPGERATLSCRASQDISKYLNWYQQKPGQAPRLLIYHTSRLHSGIPARFSGSGSGTDYTLTISSLQPEDFAVYFCQQGNTLPYTFGQGTKLEIKHHHHHHHH | binds
8 | 103106 CAR4 - Soluble scFv (scFv, Built here without the leader) scFv: QVQLQESGPGLVKPSETLSLTCTVSGVSLPDYGVSWIRQPPGKGLEWIGVIWGSETTYYQSSLKSRVTISKDNSKNQVSLKLSSVTAADTAVYYCAKHYYYGGSYAMDYWGQGTLVTVSSGGGGSGGGGSGGGGSEIVMTQSPATLSLSPGERATLSCRASQDISKYLNWYQQKPGQAPRLLIYHTSRLHSGIPARFSGSGSGTDYTLTISSLQPEDFAVYFCQQGNTLPYTFGQGTKLEIKHHHHHHHH | binds

— patent US20140271635A1 (Novartis, published 2014)
